Data on 3 molecules can be found in paper PMC10805311, “Pseudomonas aeruginosa two-component system CprRS regulates HigBA expression and bacterial cytotoxicity in response to LL-37 stress” (PLOS Pathogens, 2024).

Series [1] has as its system biofilms of uropathogenic E. coli. The settings on record: cited from earlier work. The text has this:
In the field of microbiology and immunology, the interaction between host antimicrobial peptides and pathogenic bacteria has been a subject of extensive research. The success of bacterial infections depends on a delicate balance of signals exchanged between microbes and hosts. Cationic antimicrobial peptides, including defensins such as α-defensins, β-defensins, and cathelicidin LL-37, are crucial components of innate host defense against bacterial infections. Numerous studies have shown that LL-37 acts as a shield between the host and the external environment, preventing bact ...

The test system of series [2] is T1, CprR W180A W181A (Pseudomonas aeruginosa), ORF:b369b159.
T1 sequence: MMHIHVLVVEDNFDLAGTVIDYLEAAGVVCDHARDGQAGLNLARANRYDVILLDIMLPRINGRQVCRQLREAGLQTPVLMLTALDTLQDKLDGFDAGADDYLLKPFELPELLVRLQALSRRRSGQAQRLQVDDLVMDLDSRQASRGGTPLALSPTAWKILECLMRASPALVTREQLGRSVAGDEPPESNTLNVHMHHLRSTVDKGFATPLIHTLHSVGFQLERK
The series can be described thus: EMSA. A general note: In EMSA bound probe runs differently from free probe, usually more slowly.

Series [3] deals with T2, CprR (Pseudomonas aeruginosa (PAO1 or PA14; strain of cloned gene not stated)), ORF:b369b159.
T2 sequence: T1 sequence with A181W
The series is described as follows: EMSA.

Series [4] concerns T3, CprR V192A V193A (Pseudomonas aeruginosa), ORF:b369b159.
T3 sequence: T1 sequence with A181W, V193A
The series is described as follows: EMSA.

For series [5], the system named is T4, CprR S187A S188A (Pseudomonas aeruginosa), ORF:b369b159.
T4 sequence: T1 sequence with A181W, S188A
The series can be described thus: EMSA.

In series [6] the test system is T5, CprR N188A N189A (Pseudomonas aeruginosa), ORF:b369b159.
T5 sequence: T1 sequence with A181W, N189A
The series can be described thus: EMSA.

The test system of series [7] is T6, CprR H214A H215A (Pseudomonas aeruginosa), ORF:b369b159.
T6 sequence: T1 sequence with A181W, H215A
The series can be described thus: EMSA.

Series [8] concerns T7, CprR R198A R199A (Pseudomonas aeruginosa), ORF:b369b159.
T7 sequence: T1 sequence with A181W, R199A
The series is described as follows: EMSA.

For series [9], the system named is CprRD53A / higB DNA fragments. The series is described as follows: EMSA, CprRD53A binding to higB promoter DNA. Also on record: species or system P. aeruginosa. The settings on record: 4°C 30 min. How it is done:
(§1) The gene promoters were obtained by PCR. The CprR and DNA fragment were mixed in different ratios (total 10 μL buffer, 25 mM Tris–HCl pH 7.5, 150 mM NaCl, 1 mM MgCl2, 2 mM KCl) and incubated at 4°C for 30 min, then the samples were analyzed by 8% polyacrylamide gel electrophoresis in 0.5 × TBE (Tris/boric acid/EDTA) buffer at 130 V for 120 min. The bands were staining with EB and visualized through BioRad imager.

For series [10], the system named is CprR / higB DNA fragments. The series can be described thus: EMSA, CprR binding to higB promoter DNA. Set-up: species or system P. aeruginosa. The settings on record: 4°C 30 min. How it is done:
as §1

Changes are numbered by the printed parent chain.

On to Cecropin A, for which the biofilm disruption result in series [1] is given as “disrupt biofilms of uropathogenic E. coli”.
“CTGGTCGAGTCGATGATGGTGGCCGGGCGCTGAGGCCGGGTTTCCCTCTATAAAACGCCAGCGCTCGTCGCTGGCGTTTTCGTTTCCGCCTGTTCAATTGTCCGCCTCTATGGGGACCATGCTTGTCTTTTGCCAAGAAGAAAACAATAATCAATCTCATTATCGTCTGGTGAGGTTGCC (double strand) [higB promoter (PhigB)]”: the binding entry is on record as “binds more weakly” in [2]; “binds” in series [3]; “binds more weakly” in [4]; “binds more weakly” in series [5]; “binds more weakly” in [6]; “binds more weakly” in series [7]. The binding result in series [8] is given as “binds more weakly”.
Take `CC(=O)OP(=O)(O)O` [acetyl phosphate (ACP), acetyl phosphate]: in series [9], the “effect of acetyl phosphate on DNA binding of the D53A mutant” value was “unable to exhibit this enhanced binding”. The “effect of acetyl phosphate on DNA binding of CprR” value is on record as “enhanced the binding of CprR to its target higB DNA fragments” in [10] and “enhanced the DNA-binding ability of CprR” in series [10] (listed as AcP).
